The values that follow come from patent US7070777.

The target in assay [1] is CD45RA (human) (UniProt P08575). In words: FACS on Jurkat B2.7 cells; background subtracted, rounded to nearest ten.
For assay [2] the target is unchanged. In words: FACS on Jurkat D1.1 cells; background subtracted, rounded to nearest ten.
Assay [3] has as its target CD7 (human) (UniProt P09564). In words: FACS on Jurkat B2.7 cells; background subtracted, rounded to nearest ten.
Assay [4] addresses CD7 (human) (UniProt P09564). In words: FACS on Jurkat D1.1 cells; background subtracted, rounded to nearest ten.
The target of assay [5] is CD16 (human). Put plainly: FACS on Jurkat B2.7 cells; background subtracted, rounded to nearest ten.
Assay [6] concerns the target CD16 (human). Put plainly: FACS on Jurkat D1.1 cells; background subtracted, rounded to nearest ten.
Assay [7] addresses CD29 (human) (UniProt P05556). Put plainly: FACS on Jurkat B2.7 cells; background subtracted, rounded to nearest ten.
The target in assay [8] is CD29 (human) (UniProt P05556). In words: FACS on Jurkat D1.1 cells; background subtracted, rounded to nearest ten.
Assay [9] concerns the target TCRα/β (human). In words: FACS on Jurkat B2.7 cells; background subtracted, rounded to nearest ten.
The target in assay [10] is TCRα/β (human). Put plainly: FACS on Jurkat D1.1 cells; background subtracted, rounded to nearest ten.
Assay [11] deals with CD5 (human) (UniProt P06127). In words: FACS on Jurkat B2.7 cells; background subtracted, rounded to nearest ten.
Assay [12] addresses CD5 (human) (UniProt P06127). Put plainly: FACS on Jurkat D1.1 cells; background subtracted, rounded to nearest ten.
For assay [13], the target named is CD3 (human) (UniProt P07766). Put plainly: FACS on Jurkat B2.7 cells; background subtracted, rounded to nearest ten.
Assay [14] concerns the target CD3 (human) (UniProt P07766). In words: FACS on Jurkat D1.1 cells; background subtracted, rounded to nearest ten.
The target of a further assay is CD4 (human) (UniProt P01730). Put plainly: FACS on Jurkat B2.7 cells; background subtracted, rounded to nearest ten.
Assay [15] has as its target CD1a (human) (UniProt P06126). The assay is described as above.
Assay [16] concerns the target CD1a (human) (UniProt P06126). Put plainly: FACS on Jurkat D1.1 cells; background subtracted, rounded to nearest ten.
The target of assay [17] is CD18 (human) (UniProt P05107). Put plainly: FACS on Jurkat B2.7 cells; background subtracted, rounded to nearest ten.
The target in assay [18] is CD18 (human) (UniProt P05107). In words: FACS on Jurkat D1.1 cells; background subtracted, rounded to nearest ten.
For assay [19], the target named is CD11a (human) (UniProt P20701). Put plainly: FACS on Jurkat B2.7 cells; background subtracted, rounded to nearest ten.
The target in assay [20] is CD11a (human) (UniProt P20701). In words: FACS on Jurkat D1.1 cells; background subtracted, rounded to nearest ten.
The target in assay [21] is CD58 (human) (UniProt P19256). In words: FACS on Jurkat B2.7 cells; background subtracted, rounded to nearest ten.
Assay [22] has as its target CD58 (human) (UniProt P19256). In words: FACS on Jurkat D1.1 cells; background subtracted, rounded to nearest ten.
In assay [23] the target is CD43RO (so in the source); T200. LCA) (human) (UniProt P08575). In words: FACS on Jurkat B2.7 cells; background subtracted, rounded to nearest ten.
Assay [24] has the same target. Put plainly: FACS on Jurkat D1.1 cells; background subtracted, rounded to nearest ten.
The target of assay [25] is MHC-classI (human). In words: FACS on Jurkat B2.7 cells; background subtracted, rounded to nearest ten.
In assay [26] the target is MHC-classI (human). Put plainly: FACS on Jurkat D1.1 cells; background subtracted, rounded to nearest ten.

CD43RO (so in the source); T200. LCA) (human), sequence (P08575 26-1306): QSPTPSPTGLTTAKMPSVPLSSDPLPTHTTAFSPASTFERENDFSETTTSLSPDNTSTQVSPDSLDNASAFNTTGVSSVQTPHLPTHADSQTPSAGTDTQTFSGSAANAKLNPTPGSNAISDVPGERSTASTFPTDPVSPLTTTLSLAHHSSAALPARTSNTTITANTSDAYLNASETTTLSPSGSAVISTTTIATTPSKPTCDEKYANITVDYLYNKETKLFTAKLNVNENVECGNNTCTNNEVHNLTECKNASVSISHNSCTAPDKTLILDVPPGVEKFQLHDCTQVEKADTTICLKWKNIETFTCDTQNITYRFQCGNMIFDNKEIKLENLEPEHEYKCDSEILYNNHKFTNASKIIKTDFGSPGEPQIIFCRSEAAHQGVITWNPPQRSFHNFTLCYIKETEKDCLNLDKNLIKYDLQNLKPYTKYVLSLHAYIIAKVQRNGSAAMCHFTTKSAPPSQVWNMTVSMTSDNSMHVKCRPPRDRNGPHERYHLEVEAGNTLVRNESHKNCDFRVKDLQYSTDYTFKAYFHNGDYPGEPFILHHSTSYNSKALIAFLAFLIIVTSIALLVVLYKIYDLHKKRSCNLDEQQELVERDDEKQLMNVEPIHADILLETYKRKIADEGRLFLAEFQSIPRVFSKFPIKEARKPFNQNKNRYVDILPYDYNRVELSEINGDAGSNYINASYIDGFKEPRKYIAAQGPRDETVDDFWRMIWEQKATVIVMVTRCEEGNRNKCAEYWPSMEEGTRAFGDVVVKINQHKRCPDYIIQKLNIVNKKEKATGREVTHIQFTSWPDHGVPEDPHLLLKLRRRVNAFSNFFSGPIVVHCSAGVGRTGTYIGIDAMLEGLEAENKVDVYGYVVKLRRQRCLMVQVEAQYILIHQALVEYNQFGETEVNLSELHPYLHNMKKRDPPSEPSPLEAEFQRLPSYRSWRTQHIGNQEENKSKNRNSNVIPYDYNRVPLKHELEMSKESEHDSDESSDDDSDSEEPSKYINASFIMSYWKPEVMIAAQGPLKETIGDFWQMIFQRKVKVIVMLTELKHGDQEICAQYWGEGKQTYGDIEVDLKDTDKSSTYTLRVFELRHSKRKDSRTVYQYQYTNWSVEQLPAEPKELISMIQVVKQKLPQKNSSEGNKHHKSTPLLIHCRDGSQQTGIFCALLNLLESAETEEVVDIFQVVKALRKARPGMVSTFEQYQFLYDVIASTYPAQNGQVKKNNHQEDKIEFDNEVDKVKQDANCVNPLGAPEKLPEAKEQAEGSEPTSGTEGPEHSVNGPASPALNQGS
CD45RA (human), sequence (P08575 26-1306): as above
CD5 (human), sequence (P06127 25-495): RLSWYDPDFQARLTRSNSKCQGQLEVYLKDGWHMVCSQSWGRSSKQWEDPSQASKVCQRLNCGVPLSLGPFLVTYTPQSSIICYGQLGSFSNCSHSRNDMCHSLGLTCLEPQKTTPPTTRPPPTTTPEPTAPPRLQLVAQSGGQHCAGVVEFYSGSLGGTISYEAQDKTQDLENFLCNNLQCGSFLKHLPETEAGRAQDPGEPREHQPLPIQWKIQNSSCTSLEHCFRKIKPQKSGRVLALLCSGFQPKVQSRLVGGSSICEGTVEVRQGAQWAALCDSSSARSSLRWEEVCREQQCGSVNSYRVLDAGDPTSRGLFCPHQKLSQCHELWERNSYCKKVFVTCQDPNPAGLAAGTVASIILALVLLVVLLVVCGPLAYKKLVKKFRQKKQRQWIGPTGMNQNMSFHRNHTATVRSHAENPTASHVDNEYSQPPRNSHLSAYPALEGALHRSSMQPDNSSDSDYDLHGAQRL
CD3 (human), sequence (P07766 23-207): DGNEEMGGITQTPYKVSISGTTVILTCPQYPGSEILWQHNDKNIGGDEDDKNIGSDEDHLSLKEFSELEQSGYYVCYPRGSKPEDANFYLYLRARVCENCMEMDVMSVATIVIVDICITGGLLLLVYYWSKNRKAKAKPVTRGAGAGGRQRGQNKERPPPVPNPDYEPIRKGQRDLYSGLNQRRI
CD7 (human), sequence (P09564 26-240): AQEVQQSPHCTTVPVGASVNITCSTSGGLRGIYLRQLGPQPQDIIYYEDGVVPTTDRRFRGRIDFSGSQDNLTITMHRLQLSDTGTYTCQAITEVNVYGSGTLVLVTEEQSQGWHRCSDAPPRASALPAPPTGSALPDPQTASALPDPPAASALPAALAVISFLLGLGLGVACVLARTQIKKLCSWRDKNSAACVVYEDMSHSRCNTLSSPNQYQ
CD18 (human), sequence (P05107 23-769): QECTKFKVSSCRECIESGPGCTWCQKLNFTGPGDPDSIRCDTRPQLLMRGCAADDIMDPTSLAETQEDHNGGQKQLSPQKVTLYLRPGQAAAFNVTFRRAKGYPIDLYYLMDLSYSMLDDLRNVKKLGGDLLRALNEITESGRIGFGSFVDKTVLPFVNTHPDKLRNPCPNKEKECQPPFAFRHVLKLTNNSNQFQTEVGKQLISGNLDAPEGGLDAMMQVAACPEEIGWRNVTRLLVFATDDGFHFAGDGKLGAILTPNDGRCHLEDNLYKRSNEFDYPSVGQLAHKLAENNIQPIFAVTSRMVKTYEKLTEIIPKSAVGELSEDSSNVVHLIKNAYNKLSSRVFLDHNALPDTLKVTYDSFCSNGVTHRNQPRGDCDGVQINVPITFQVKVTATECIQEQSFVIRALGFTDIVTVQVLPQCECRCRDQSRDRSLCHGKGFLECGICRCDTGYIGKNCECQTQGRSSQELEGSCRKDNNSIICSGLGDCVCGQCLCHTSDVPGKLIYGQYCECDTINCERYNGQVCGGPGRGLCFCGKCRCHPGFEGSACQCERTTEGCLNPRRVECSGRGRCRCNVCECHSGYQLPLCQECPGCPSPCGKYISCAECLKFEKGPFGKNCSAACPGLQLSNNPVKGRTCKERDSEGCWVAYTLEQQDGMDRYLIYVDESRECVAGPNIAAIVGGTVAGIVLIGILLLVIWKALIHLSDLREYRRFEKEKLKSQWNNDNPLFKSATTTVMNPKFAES
CD1a (human), sequence (P06126 17-327): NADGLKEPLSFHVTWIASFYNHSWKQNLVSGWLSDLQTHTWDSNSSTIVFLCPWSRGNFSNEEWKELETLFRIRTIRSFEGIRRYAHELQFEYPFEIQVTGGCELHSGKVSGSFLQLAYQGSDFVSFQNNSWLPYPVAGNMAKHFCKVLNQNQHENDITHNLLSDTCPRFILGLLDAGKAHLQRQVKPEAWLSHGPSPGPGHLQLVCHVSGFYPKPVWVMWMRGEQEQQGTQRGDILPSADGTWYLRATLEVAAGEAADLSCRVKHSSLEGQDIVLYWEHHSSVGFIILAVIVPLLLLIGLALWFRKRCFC
CD11a (human), sequence (P20701 26-1170): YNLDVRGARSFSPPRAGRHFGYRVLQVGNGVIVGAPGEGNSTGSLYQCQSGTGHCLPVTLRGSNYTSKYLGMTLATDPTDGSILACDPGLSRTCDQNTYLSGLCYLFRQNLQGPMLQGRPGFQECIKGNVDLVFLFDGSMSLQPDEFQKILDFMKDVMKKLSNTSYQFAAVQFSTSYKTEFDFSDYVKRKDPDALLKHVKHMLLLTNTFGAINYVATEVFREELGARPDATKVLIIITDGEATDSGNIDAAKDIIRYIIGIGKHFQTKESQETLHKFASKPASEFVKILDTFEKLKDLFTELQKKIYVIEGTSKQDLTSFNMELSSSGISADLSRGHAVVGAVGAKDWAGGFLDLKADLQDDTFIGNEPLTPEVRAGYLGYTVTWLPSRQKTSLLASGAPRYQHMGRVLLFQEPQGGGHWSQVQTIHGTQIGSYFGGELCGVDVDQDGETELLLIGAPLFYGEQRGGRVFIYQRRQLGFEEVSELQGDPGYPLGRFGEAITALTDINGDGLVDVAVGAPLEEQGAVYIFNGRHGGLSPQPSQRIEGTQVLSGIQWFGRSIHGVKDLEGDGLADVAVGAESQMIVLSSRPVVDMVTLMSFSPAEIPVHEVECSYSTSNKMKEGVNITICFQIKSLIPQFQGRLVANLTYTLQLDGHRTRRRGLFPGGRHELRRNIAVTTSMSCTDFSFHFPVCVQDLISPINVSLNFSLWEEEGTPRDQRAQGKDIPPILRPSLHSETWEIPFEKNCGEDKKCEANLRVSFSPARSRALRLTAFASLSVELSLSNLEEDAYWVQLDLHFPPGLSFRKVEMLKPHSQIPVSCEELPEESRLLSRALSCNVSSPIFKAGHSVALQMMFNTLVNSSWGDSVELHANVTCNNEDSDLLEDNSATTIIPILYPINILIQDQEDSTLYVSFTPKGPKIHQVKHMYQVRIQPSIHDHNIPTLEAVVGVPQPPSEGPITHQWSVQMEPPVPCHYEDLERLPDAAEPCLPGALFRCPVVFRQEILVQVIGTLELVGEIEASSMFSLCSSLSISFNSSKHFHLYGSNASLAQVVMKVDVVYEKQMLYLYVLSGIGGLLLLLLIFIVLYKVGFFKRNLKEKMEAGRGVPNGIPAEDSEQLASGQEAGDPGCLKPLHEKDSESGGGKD
CD16 (human), sequence (P06734 whole entry): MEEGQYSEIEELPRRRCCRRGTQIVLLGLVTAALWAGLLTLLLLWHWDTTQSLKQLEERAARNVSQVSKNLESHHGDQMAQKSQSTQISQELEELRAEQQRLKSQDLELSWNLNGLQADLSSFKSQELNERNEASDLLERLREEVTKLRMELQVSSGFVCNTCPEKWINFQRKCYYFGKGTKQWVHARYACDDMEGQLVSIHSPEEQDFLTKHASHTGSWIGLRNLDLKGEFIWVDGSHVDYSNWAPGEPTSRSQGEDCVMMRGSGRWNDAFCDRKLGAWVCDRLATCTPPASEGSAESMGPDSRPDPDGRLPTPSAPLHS
CD58 (human), sequence (P19256 29-250): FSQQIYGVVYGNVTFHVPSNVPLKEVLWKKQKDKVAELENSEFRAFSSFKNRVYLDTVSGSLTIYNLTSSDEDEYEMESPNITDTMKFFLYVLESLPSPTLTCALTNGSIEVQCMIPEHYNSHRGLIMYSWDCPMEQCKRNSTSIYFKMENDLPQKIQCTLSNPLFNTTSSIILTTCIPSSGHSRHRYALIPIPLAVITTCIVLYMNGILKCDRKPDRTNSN

Regarding 2H4 (antibody), the values for the Mean Fluorescence Intensity (arbitrary units) with CD45RA (human) [1] and with CD45RA (human) [2] were 40 and 30, respectively.

Regarding 3A1 (anti-CD7) (antibody), the figures for the Mean Fluorescence Intensity (arbitrary units) with CD7 (human) [3] and with CD7 (human) [4] were 190 and 200, respectively.

In the case of 3G8 (antibody), the Mean Fluorescence Intensity (arbitrary units) in the assay with CD16 (human) [5] and with CD16 (human) [6] was 20 each time.

Take 4B4 (antibody): the results for the Mean Fluorescence Intensity (arbitrary units) with CD29 (human) [7] and with CD29 (human) [8] were 110 and 140, respectively.

On to BMA-031 (antibody), for which the Mean Fluorescence Intensity (arbitrary units) in the assay with TCRα/β (human) [9] was 40; with TCRα/β (human) [10], 10.

Take OKT1 (anti-CD5) (antibody): the Mean Fluorescence Intensity (arbitrary units) in the assay with CD5 (human) [11] is 90; in the assay with CD5 (human) [12] it was 20.

For the substance OKT3 (anti-CD3) (antibody), the Mean Fluorescence Intensity (arbitrary units) with CD3 (human) [13] turned out to be 80; in the assay with CD3 (human) [14] it was 30.

As to OKT4 (anti-CD4) (antibody), the Mean Fluorescence Intensity (arbitrary units) with CD4 (human) worked out at 130.

For OKT6 (anti-CD1a) (antibody), the Mean Fluorescence Intensity (arbitrary units) with CD1a (human) [15] and with CD1a (human) [16] was 10 each time.

With “TS1/18.1.2.11.4 (anti-LFA-1β) (antibody)”, the Mean Fluorescence Intensity (arbitrary units) came out at 80 in the assay with CD18 (human) [17] and 30 in the assay with CD18 (human) [18].

As for TS1/22.1.13 (anti-LFA-1a) (antibody), the Mean Fluorescence Intensity (arbitrary units) in the assay with CD11a (human) [19] was determined as 100; with CD11a (human) [20] it was 40.

Take TS2/9.1.4.3 (anti-LFA-3) (antibody): the Mean Fluorescence Intensity (arbitrary units) with CD58 (human) [21] turned out to be 60; in the assay with CD58 (human) [22] it was 40.

For the substance UCHL1 (antibody), the figures for the Mean Fluorescence Intensity (arbitrary units) in assay [23] and in assay [24] were 20 and 10, respectively.

Turning to W6/32 (anti-MHC class I) (antibody), the Mean Fluorescence Intensity (arbitrary units) with MHC-classI (human) [25] came to 70; with MHC-classI (human) [26], 190.
